Experimental findings from a protein production outcome set (Wang et al. 2014) are described below.

This data set can be described thus: label from the status in PepcDB records.

Regarding “MSEVHTTIIDLDAGAVFSGTPSGRIIKGFDKPCAHTPNIDPDYVFHECSRDIVVWLMDSSDPLYVFGPTGSGKTSAIKQLAARLNYPVFDVTGHGRLEFPDLVGHLSVRDGSMEFQYGPLALAMRHGGILLLNEIDLLEPATATGFNGILDGEPLCIPENGGEIITPHPMFRFAATANTNGGSDDTGLYQGTLRQNLAFLDRFWLCEMPYPAPEAEKALLERRAPMLPDDIRTRMVDYANEVRRLFMGESGTTYGHSIEVTFSTRTLLRWADLTVRFQPLARQGIQPLTYALDRALGFKASKDTRTTLHELAQRLFPQHAATGE”, the protein production result is “failed”.

“MSEVTKNSLEKILPQLKCHFTWNLFKEDSVSRDLEDRVCNQIEFLNTEFKATMYNLLAYIKHLDGNNEAALECLRQAEELIQQEHADQAEIRSLVTWGNYAWVYYHLGRLSDAQIYVDKVKQTCKKFSNPYSIEYSELDCEEGWTQLKCGRNERAKVCFEKALEEKPNNPEFSSGLAIAMYHLDNHPEKQFSTDVLKQAIELSPDNQYVKVLLGLKLQKMNKEAEGEQFVEEALEKSPCQTDVLRSAAKFYRRKGDLDKAIELFQRVLESTPNNGYLYHQIGCCYKAKVRQMQNTGESEASGNKEMIEALKQYAMDYSNKALEKGLNPLNAYSDLAEFLETECYQTPFNKEVPDAEKQQSHQRYCNLQKYNGKSEDTAVQHGLEGLSISKKSTDKEEIKDQPQNVSENLLPQNAPNYWYLQGLIHKQNGDLLQAAKCYEKELGRLLRDAPSGIGSIFLSASELEDGSEEMGQGAVSSSPRELLSNSEQLN”: the protein production result is “failed”. On to “MSEVVKKFMYLNRKAPYGTIYAWEALEVVLIGAAFDQDVCVLFLDDGVYQLTRGQDTKGIGMKNFSPTYRTLGDYEVRRIYVDRDSLEARGLTQDDLVEIAFEDMETEEEFDNIVEVIDSARVSELMNESDAVFSF”, for which the protein production result was “not failed”. Take “MSEYLPIIIPSVFLVIPSIAILYMEKRFSTAVYTAVIGLLISFLSFTLFFSLGYYNYGVFNNALYLTKFGYFIAISSLIATILVVLGSSNDLKNWETGTSFLSLSLLTNIGVIYLAFAYNVLVIFASWAIASAATYVIAMLKKDYQSVEAGVKYLVMGLLSSSLMIIGLAFFVTAGNTLYLDPVISYQPLIVLSIIFFSIAFLFKIGAFPFQGWLPEVYSLADRFSVGFVSSVGKIVGIEPLLVILYYLIQDNSSSQVIYLTVVILFSIISVLSLIFGNISAFSRKDFAQILAYSSITQVGFMVIGIAMLPVNMNIAISGLMVYLLSYSIAQAGLFVSLSHVEKITGSSYFESFRGMSSGDRVLAFSMTILLLSLLGIPPILGFWAKLFVLESSFSQPWLTIIGFINSAISAGYYIPPIREIFREGQFKKVDSPERDSVIVAAVLSIALGIISPLIFGVLV”: the protein production result is on record as “failed”. Take “MSEYRTVSAAAMLGTYEDFLELFEKGYEDKESVLKSNILYDVLRNNNDEARYKISMFLINKGADIKSRTKEGTTLFFPLFQGGGNDITGTTELCKIFLEKGADITALYKPYKIVVFKNIFNYFVDENEMIPLYKLIFSQSGLQLLIKDKWGLTALEFVKRCQKPIALKMMEDYIKKYNLKENS”: the protein production entry was “not failed”. Take “MSFDISELLTLYDVVTFSFPERYEDLMREIIEKATRLFGVRRLAIVLREGERYKCIERWGFRRDEEVLERIKNGGENSFIYLMRNGEQGLLYIEPPGRISEREKRLYTIFARRIENIIARKQIEEKIKNSEQEKKVILDSIVELLVFQNPDNRILWANRAAAEYAGARSEELAGRFCYEALHHRDEPCEECPVIKALDTGVPQEGIIASLEGRQFFVRGYPVKKENGLIEGIVEVSVDVTERMQAEEAFRTIFNSVHDAIFIHTLDGKIIDVNQTMLRMYVINSKEEAIKLSIIDDYSIPGSTAEQLPLLWQKVISGENLLFEWKARRPVDGSVFDVEVFLKKISLSKKDVILAAVRDITERKREEELLRNLFTHSPIGMYIVSEGKFQLINPQFEILTGYRQDKLIGMESLNLVVPEDRKMVRSNAIKMLKGEAVEPYEFRIVTGQGDIRWMEETVASIWHDGKRVTLGNIIDITQKKKFEQKLAYISLHDQLTALYNRAYFEEELKRLSTSRKYPITIIVADVNGLKLVNDTMGHDKGDELLTACARVLKKAFRSSDVVARVGGDEFVALLPRTDGKTGKSILKRLRLFIDKYNQEHPELPLSVSFGIATADTPEQSLKEIYKKADDLMYQEKLNLGSSARSKIVNALLTALSERDYITEGHARRMQKLCQDLGEKVGLSAQQLANLSLLAQVHDLGKVGIPDRILFKRGPLTEKEWEVMRQHPEKGYRIAMSSPDLAGIADLILKHHEKWDGTGYPLGLKEEEIPIECRILSIVDAFDAMTSGRPYCRTKTIEDALKEIRRCAGTQFDPRLAEAFIEMITSEKFTAGEKEVAT”: the protein production result is “failed”. In the case of “MSFFLTTPAAIDLGVNIDHVATLRNARGTAYPDPVRAALAAEDAGADAITLHLREDRRHIVDADVRTLRPRVKTRMNLECAVTPEMLDIACEIRPHDACLVPEKRSELTTEGGLDVVGHFDAVRAACKQLADAGVRVSLFIDPDEAQIRAAHETGAPVIELHTGRYADAHDAAEQQREFERIATGVDAGIALGLKVNAGHGLHYTNVQAIAALPGIAELNIGHAIVAHAVFVGWDNAVREMKAIMVAARVAALHGGR”, the protein production result is given as “not failed”. As to “MSFGDTLGLGFMTFAFFLGAGNLIFPPFAGMLAGENMLLAMLGFLITAVGLPLVGLIAVAKAQGKVMAMLPVFAATALAIAIYIIIGPAFAAPRTGLVAYEIGAKPFIDNTTATIMLGSLSLNLSQLIYTLGFFIVTMLLALFPGKLLDSVGKVLTPILLLLLVGLALSVLFLPASEVGVAVGDYKNHPLTKGILEGYNTMDTLASLMFGMLIIDLLRKKGIEQPSAQTKYLIRAAFIAAAGLAFVYVSLFFLGATAGDIAAGAKNGGEILTNYVTREFGSLGTVLLSAVVTLACLTTAVGLVSACSEFFNELMPKLSYRFLVVALSAICALIANVGLSQLINISIPVLMAVYPVAIALVAVTFLTEYFPRPQFAHRAALSVALLFGIFDGMKVAAKSLTGEDGRGITEFAQSFIDFVNGMSPTLSILPLYEEGMAWLLPTLVVIVLCLIIRGSGAKTVSAA”, the protein production result was “failed”.

Consider “MSFIRTFYGDIAPEQLGFTYSHEHIVCVPAYWQERDADDLLLDDKEKSQLDVQDFADLGGKTIVDATAVDYGRRVLDVAQISKETGIQIVGTAGFNKSFLWDGKIKPELKPIIGDFETYYEWIENTSIDKLTEFVVNEVENGLEGTPYKAGQVKFGTGYNMITPLEEKTIRAVARAHHETKAPIHSHTEAGTMALEQIEILKQENIPLEYLSIGHMDRNLDPYYHKQVAKTGAFMSFDGIAKIKYAPESARIAAILYLVSEGFEDQILVSGDTARKTYYKHYGHGPGLEYIAKKWVPRFIDEANEKGFDGEKLVKKFFVDNPARCFTFKK”, for which the protein production result is “failed”. Consider “MSFKRDRGDYKGRIDWFTIILYLLLVVAGWFAVCGASYDFDISHLFMMGGRPMMQLLWIGLAVVIGFMVLLMETDIFESLAPVFYAAMLGLLALTILIAPDIKGSHSWLVIGPLRLQPAEFAKVTTALFLAWKLNQNDFVLRGMKAYASTFAIILIPVLLILMQNETGSALVYIAFFLALYREGMSGVFIGIAFCAVLFFVTALKLQGDVWWGHTDAAEWSVVSMAFVIGFFLVRIYTKERGRFYVVAAGLTAVTYAVAIVLSYFVSVDFVLVAYGLLAALIVWALSMAIKRYVLSYALIAVFALCSVGYFYSVDYVFNKVMQPHQQMRIRVALGIEDDLRGGGYNVDQSKIAIGSGGFMGKGFLKGTQTKLKYVPEQDTDFIFCTVGEEQGFLGSVLLLIGYATLIIRIVALAERQTKVFSRVYGHSVAAILLFHLSINVGMVIGLVPVIGIPLPFFSYGGSSLWGFTLLIFIFLRLDADRDCR”, for which the protein production result is recorded as “failed”. With “MSFLCVRTVSRFRSLSRALAPGFLLLHGNAVPKTAVFFRQQSSNTRLFSSYTAPSGVEENNSKSALKNKLPPGKEVSSKDAKEKITTSAIDLALNSVVKVFTVSSKPRLFQPWQITMQSESTGSGFVISGKKILTNAHVVANQTSVKVRKHGSTTKYKAKVQAVGHECDLAILEIDNDKFWEGMNPLELGDIPSMQDTVYVVGYPKGGDTISVSKGVVSRVGPIKYSHSGTELLAIQIDAAINNGNSGGPVIMGNKVAGVAFESLCYSDSIGYIIPTPVIRHFLNAIEESGEDVSFGSINLTYQKMDNDQLRKDFKMSDKMTGILINKINPLSDVHKVLKKDDIILAIDGVPIGNDSSVHFRKKERITFKHLVSMKKPCETALLKVLREGKEYEFNSSLKSVPPLVPKRQYDKSASYYIFGGLVFLPLTKPYIDSSCVSESALGKMPKKAGEQVVIISQILEDDINTGYSIFEDFQVKKVNGVQVHNLKHLYKLVEECCTETVRMDLEKDKVITLDYKSAKKVTSKILKSLKIPSAVSEDLQPKQQNKRSKVPPKSKEH”, the protein production entry is listed as “failed”. In the case of “MSFRAFLPAAMLVTVAGFWLGASTPGVAQYCEGTVHGLSGRYNLATGSGFLAVRTRPNSSSRMIGQLFNGDHVEIFDRRGNWYQVEIGGSTGWANARWLRNDCRY”, the protein production result was “failed”. As for “MSFSDHFSAVAASYAKARPRYPQRWFRYLARIVPDRQRVWDCATGNGQAAIALAEYFSEVIGSDASAAQVRQARSHPRVQYLVFPAEATPLAPASLDLITVAQAAHWFDLPQFYIEAQRLLRPGGVIALWGYGLGSLNPAIDHVFNHFYRDWLDPYWPPERQWVEQAYEGLSFPFEPLPTPTFSMQCDWTLFDLLAYLRTWSGVQQFQRQRGFDPVWAIAPELQRVWGDPQRYRRITWPLFAKVGRWQPDRVRLEHHHHHH”, the protein production entry was “failed”. As to “MSFSRHIGVTMIDVVDLSRLQFALTAMYHFLFVPLTLGMAFLLAIMESMYVMTNKQIYKDMTKFWGKLFGINFALGVATGLTMEFQFGTNWSYYSHYVGDIFGAPLAIEALVAFFLESTFVGLFFFGWDRLSKRQHLAVTWLVALGSNFSALWILIANGWMQNPVGADFNFETMRMEMVSFSEVVLNPVAQVKFVHTVASGYTCGAMFILGISSYYLLKGRDIAFARRSFAIAASFGIAAILSTIVLGDESGYELGEVQKVKLAAIEAEWHTEPAPAAFTLFGVPNQETMHTDYAIKIPYVMGIIATRSFDEQVTGLRDLRDEHVERIRGGMYAYELLEKLRAGDKSEENMTAFDEVKGDLGYGLLLKRYTDNVVDATEEQIQAAADDSIPTVWPLFWSFRIMVACGFIMLFVFGAAFIQTCRQKIEQKQWILKAALLSIPLPWIAIEAGWFVAEYGRQPWAVGEILPVHVAASALTAGEIWTSLFAILALYTVFLIAEVYLMLKFARKGPSSLKTGRYHFEQNADSVEDKVSRQVEA”, the protein production result was “failed”. With “MSFVPSLPNLGRFWTAANALSLCRLALVVPITVFLWRDGPLGWLLGLVILVILTDWFDGRIARWTHSVSDWGKVIDPVADKFAAIMTVTALTFRPADPHLPLWFFGLVVGRDVAILLGGMAIARRSGQIVMSAWAGKAASLWLALTILSVILRADPPVFRVCLWMATGLFVFSFLLYVVRYLQATRNAEGATPDSVPQGP”, the protein production result is “failed”. Consider “MSGARNVEQWQDFIGSCLDFRPADGVFRIARDMFTEPELFDLEMELIFEKNWIYACHESELPNNHDFITMRAGRQPMIITRDGEGRLNALVNACQHRGTTLTRVGKGNQSTFTCPFHAWCYKSDGRLVKVKAPGEYDEGFDKATRGLKKARIESYKGFVFISLDVAADNSLEDFLGDARIFFDMMVAQSPDGELEVLPGKSAYTYDGNWKLQNENGLDGYHVSTVHYNYVATVQHRQQVNADSGAGSSATLDYSKLGAGDASTDDGWFAFENGHSVLFSEMPNPAVRSGYASIMPRLVAEHGQAKAEWMMHRLRNLNIYPSLFFLDQISSQLRIIRPIAWNKTEIISQCIGVKGESDADRENRIRQFEDFFNVSGMGTPDDLVEFREAQRGFQGRLERWSDISRGRQHWVSGPTANSENLGIQPAMTGTEITHEGLYVNQHRNWQKFLLDGLQRRPLKLREV”, for which the protein production result is recorded as “failed”.
